Assay results reported in publication PMC5687611.

Experiments:
[1] = molecular target: L3C7-hPD-L1 phage clone (displayed on M13 phage) (human) (UniProt Q9NZQ7); test: ELISA; inhibition phage ELISA: phage displaying hPD-L1 variants incubated with 1.6 µM non-biotinylated soluble hPD-1 for 1 h before adding to plates with captured biotinylated hPD-1
[2] = molecular target: L3B3-hPD-L1 phage clone (displayed on M13 phage) (human) (UniProt Q9NZQ7); test: as above

For “soluble non-biotinylated hPD-1 (residues 33-150, C93S) (from UniProt Q15116 33-150) (domain or fragment)”, which inhibition rate at 1.6 µM soluble hPD-1 [1] is on record?
Its inhibition rate at 1.6 µM soluble hPD-1 is 82.6%.

What about the inhibition rate at 1.6 µM soluble hPD-1 [2] of the same substance?
Its inhibition rate at 1.6 µM soluble hPD-1 is 86.7%.
